B1: Notch3 TM helix-containing fragment, Notch3(1629–1675) [human] / itself (parent)
chain: VRGEPLEPPEPSVPLLPLLVAGAVLLLVILVLGVMVARRKREHSTLW
B2: Notch2 TM helix-containing fragment, Notch2(1666–1710) [human] / itself (parent)
chain: VVSESLTPERTQLLYLLAVAVVIILFIILLGVIMAKRKRKHGSLW
B3: Notch4 TM helix-containing fragment, Notch4(1432–1481) [human] / itself (parent)
chain: VHPHAGTAPPANQLPWPVLCSPVAGVILLALGALLVLQLIRRRRREHGAL
B4: Notch1 TM helix-containing fragment, Notch1(1721–1767) [human] / itself (parent)
chain: VQSETVEPPPPAQLHFMYVAAAAFVLLFFVGCGVLLSRKRRRQHGQL

Variants of: B1
Experiment: Tango assay
Settings: with itself;; read off a plot

| Variant | response (relative activity (C99-WT = 100)) |
| --- | --- |
| chain 1 L30P V31P | 91 |
| chain 1 V20P A21P | 84 |
| chain 1 V28P I29P | 62 |

Variants of: B2
Experiment: Tango assay
Settings: with itself;; read off a plot

| Variant | response (relative activity (C99-WT = 100)) |
| --- | --- |
| chain 1 I28P L29P | 53 |
| chain 1 A18P V19P | 82 |
| chain 1 F26P I27P | 46 |

Variants of: B3
Experiment: Tango assay
Settings: with itself;; read off a plot

| Variant | response (relative activity (C99-WT = 100)) |
| --- | --- |
| chain 1 A33P L34P | 140 |
| chain 1 L31P G32P | 93 |
| chain 1 V23P A24P | 130 |

Variants of: B4
Experiment: Tango assay
Settings: with itself;; read off a plot

| Variant | response (relative activity (C99-WT = 100)) |
| --- | --- |
| chain 1 V30P G31P | 91 |
| chain 1 F28P F29P | 93 |
| chain 1 A20P A21P | 130 |
